Data set [1] deals with AAC(2′)-Ia (Providencia stuartii, UniProt Q52424). As to the kind of experiment: X-ray crystal structure. The data set is classed as binding.
The subject of data set [2] is CN[C@@H]1[C@@H](O)[C@@H](O[C@@H]2[C@@H](O)[C@H](O[C@H]3OC(CNCCO)=CC[C@H]3N)[C@@H](N)C[C@H]2NC(=O)[C@@H](O)CCN)OC[C@]1(C)O. As to the kind of experiment: purified protein. The data set is classed as biochemical, Providencia stuartii. The conditions noted are these: 150 μM AcCoA, 25 mM MES pH 6, 25 °C.

The values that follow come from publication PMC6167752 (ACS infectious diseases, 2018).

As a reminder, the Km is the concentration of substrate that gives half-maximal velocity. As a reminder, the kcat is the number of substrate molecules converted per active site and unit of time at saturation. By kcat/Km is commonly meant the second-order rate constant that governs catalysis at low substrate concentration.

AAC(2′)-Ia, sequence (Q52424 whole entry): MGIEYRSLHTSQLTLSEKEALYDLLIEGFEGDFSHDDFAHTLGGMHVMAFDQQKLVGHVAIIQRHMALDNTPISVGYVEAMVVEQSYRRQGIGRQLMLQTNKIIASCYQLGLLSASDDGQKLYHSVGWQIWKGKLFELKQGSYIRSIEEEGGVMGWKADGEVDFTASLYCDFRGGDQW

Take `CC(=O)SCCNC(=O)CCNC(=O)[C@H](O)C(C)(C)COP(=O)(O)OP(=O)(O)OC[C@H]1O[C@@H](n2cnc3c(N)ncnc32)[C@H](O)[C@@H]1OP(=O)(O)O` [acetyl-coenzyme A]: the X-ray crystal structure entry in data set [1] (one molecule modelled) is “one acetyl-coenzyme A, and three coenzyme A molecules was evident in difference density maps”.

In the case of `CC(C)(COP(=O)(O)OP(=O)(O)OC[C@H]1O[C@@H](n2cnc3c(N)ncnc32)[C@H](O)[C@@H]1OP(=O)(O)O)[C@@H](O)C(=O)NCCC(=O)NCCS` [coenzyme A], the X-ray crystal structure result in data set [1] (active site) was “one dimer contained a coenzyme A bound to each active site”.

Regarding AAC(2′)-Ia (Providencia stuartii), in data set [2], the Michaelis constant (Km) amounted to 370 ± 90 µM, the kcat turned out to be 0.9 ± 0.1 s⁻¹ and the kcat/Km was 2400 M⁻¹ s⁻¹.
